The series in a line: label from the status in PepcDB records.
Take “MAIPSGATGKEPFLPRTLTVLREGYDGGTFFKDLAAGLTVGIVALPLAMAFAIASGTTPERGLFTAIVAGFLISLLGGSRYQIGGPTGAFVIIIFNVIMKHGYDGLVVTTLLAGAMLLVFGLCRFGALIKYIPYPVTTGFTAGIAVLIFSQQVKDFLGLSMQSVPPDFFEKWQAYIHNAATFDPATCGIAFLALGAIILTRKTIPRIPGPVVGVVLASLTVWALGLDVETIGSRFGGIPTELPTFTLPTVTLERVRQLLPDAMTIALLAGIESLLSCVVADGMTGDKHNSNVELAAQGAANIASVMFGGIPATGAIARTVTNIRSGGRTPVAGMIHAAVLVGFILYLAPLASFIPLASLAAVLMVVAWDMSEMHKFLRLLHAPKSDVLVMCLTFALTVVIDLTVAVYVGVMLASLLFMRRMSEVTQICTCLDGEATKVQGRETAELDVPEGVKVYEIDGPFFFGVADRFQNVLAALDRQPEVFILRMRKVSTLDSTAVNALEVFWRKCRSDGTQLLLSGVRETMRTTLRRMGTLSLIGEGNICENIDAALARAGQVLAERREAEDRPQ”: the protein production result was “failed”.

For the sequence “MAISVIMSVYNERPEQVQQAVDSILKQTYLPREFVIVLDNPERSDLKDLLMDYDCRVEMIKLVCNPENLGLAASLNKAIELASSELIARMDADDISVTNRLEVELEALKTRDLDLISGNITYLDEQDEVVGEKSAIPEAEPLIQKILPYGSTIIHPTVLMRKTAVQQVGGYRLLPTAEDYDLWLRLLANGFKIGSINRRVLNYRLRGNSMTSDAWKTYLVSRYIQQLYAERKRTGADSFGRGMSALTDKINDVRAQSTFNRGQKYFTMAMASMRKRKLGQALAALVRAMVTSPDNCYYVINYLRLRTIWSVNGRRYRQQPSD”, the protein production result is on record as “failed”.

Take “MAIVLLVLHVCTGLRGSPVSGRVRMAVDSGIYLAPCSNNDAQEHLKRTVINGVDRDDYGQYTNVGFGDSVSIWGVKGGNESHWQDIDAGDYLFFYTGDETYSQVAEVLATDQNEGLAEHLWPGFEDTWEFIIYLNEPIPVNIDSNEIADYAGYKQNYILGFQSLRGSAVDEINDEYGSIEGYINANRTDGNHIQTSGGSQDPDEGDDSVVDEVLDEADRDEEAYANIARQLEEVGQVVFYGPPGTGKTYNAQQFARWWLHNLQSEPRESQVRSVTFHPSYTYEDFIEGLTANATENSVSYDIKPGKFKAICEDARVAYQETGPNEEPPRYVLLIDEINRGNLAQIFGETITLLEEDKRGTLHVDLAHSGGSFTIPPNLYVIGTMNTADRSVALVDAALRRRFRFIDFPPDYGVARSRFGFDTEYDLTSAARGERSDLEQLQALSIQAVEQLNETIIELPDLGKGKQIGHSYLLVDPDDEQALVDAWRYEILPLLEEYFYGQLSRIRQELFNQNGDSLVDWEREQIKDFDPETLRESLQAIVNAGLEHHHHHH”: the protein production entry is on record as “failed”.

Consider “MAKDKRISLLKVTSMVIIINLLSKITGFIRDFITASKFGTSVSADAFSMSSVVPNIIFAILGAAIVNTFVPIFNDVIVNKGEKRAFKFSNNVITVLTLLSIILTLLGEIFCPQFVKLIAPDFHGYKYLLTIKLTRIFLLIIIVNTWVFLSTAILQAKEHFLIPSLIGIPYNLLVIVYLLFFSSKYGVLGLTEVIVFAMFVQFLIHVPSLARMKYRYKPEFNISDGYLKSMVVLLIPILLGTSVQQITSLFNGRFSSSLETGSVAALSYASRLNSLVMDIFVISIVTVIYPKMTKLSSENKIGELIESFNISIRSITIILFPIITIILIESVPIVKILFQRDAFGNKSTLMTSTALFYYIIGIIAAGLREVLCRMFYALKDTRTPMINSAITVLVNVVLAYYLKDVLRLGGIALASSIAAYVSSILLFIKLNSKLKNINYRKTIGVTIKVIFASIGMGIFLKVLYQIVGQALLKKAIIIEIIGFGGITLIALLIYMLILYLMKVEEINMVSAFLYKKIKRG”, for which the protein production result is reported as “failed”.

In the case of “MAKDKTSRKAPMGSGRDALMQAFREAQRPLRLDMLLRILGLHRKEKRTLEESLEALQAEGRILRLRGGAWGLTDHMKMVTGTLQVQRTGMGFVLPEDRRRTDIYVHPTQMGEAWHGDKVVVVLLPGGRGRNPEGRIVRILERGLKEMPARVVKRMGRQGLLCRAADARIKVHFLVDVTGLEGKPQKDDILVVSPGERVEDGLWAATAVRHLGSEDDVSVQERLVKINHGVPTEFPVPVLEEAATLPPAPGGGDFADRIDLRHMEFVTIDGARARDFDDAICVEEQGKGWRLWVAIADVSHYVRPGSAMDREALERSNSYYFPQSVEPMLPEALSNGLCSLNPRVPRLAMVAEIYFFGEGSPGKCKFYPAVIESKARLTYGQVNRALLLGDEEERLVLRPVLPMLEQAEKLARVLHQRRRERGSLDFDLPEPEIAFNIYGETVDIRRKVRHFGHQIVEEFMIAANEAVARFLTEKEADFLYRVHPEPEPEKLSALFKVLAGTDIAQGLPREASAGALQTVLQKAHGSAQEFLISRLTLRTMMQARYSPEHEGHFGLASACYCHFTSPIRRYADLVVHRALKRALGGDPGPTPAGGKLVAIADQLSQHERKAMEAEREILKRLTVLLLRSRVGETLTGVISSILDFGFFVELNEVLADGMVRLSSLDDDYYAFIPERQELRGERTGRTFRLGQQVKVRLADVNVGRLEVNLELVREEGDDTPVPTRRRSAASGRDGSGRDGSGRGGRGRSRHDATPRVKASPDASPEVSADGDMPDGDRLPPWIRAATEEDDPRDTTRTRRRRDDDASSRDGGDRRRGRSRNEGARGAGNPARGKAPRDGAGGDRKKGDGRDGKDGQAGGKPAGKGQSRKGKASSHRKGQGRVKKSDE”, the protein production result is on record as “failed”.

“MAKGNKIPLTFHTYQDAATGTEVVRLTPPDVICHRNYFYQKCFFNDGSKLLFGAAFDGPWNYYLLDLKEQNATQLTEGKGDNTFGGFLSPNDDALYYVKNTRNLMRVDLTTLEEKTIYQVPDDWVGYGTWVANSDCTKMVGIEIKKEDWKPLTDWKKFQEFYFTNPCCRLIRVDLVTGEAETILQENQWLGHPIYRPGDDNTVAFCHEGPHDLVDARMWFINEDGTNMRKVKEHAEGESCTHEFWVPDGSAMIYVSYLKDDTNRYIRSIDPVTLEDRQLRVMPPCSHLMSNYDGTLLVGDGSDAPVDVQDDGGYKIENDPFLYVFNLKTGKEHRIAQHNTSWEVLEGDRQVTHPHPSFTPDNKQVLFTSDVDGKPALYLAKVPDSVWNLEHHHHHH”: the protein production entry is recorded as “not failed”.

On to “MAKGTAVEFQPGGGQARDVFSIAAQAASPAADAGTSAAPAQAAPAPAAVASQAQHFGRTAEPAEPTDLWSYFWNGVTRNYFNFAGRARRKEYWGYCLFWTIALLVIVGIGVFADAEMGNFDSAEMPAMTVGLFGLFLLATFLPSLGMIVRRLHDLGLTGWLCLLILIPTFGSLIILVFALIPTQGRENQWGPVPAGVRV”, for which the protein production entry was “failed”.

Turning to “MAKIDALAPQYSRIILLGHSAGGMIVRDAYLLAAGAYLDQPSRGAWWSKVESVLLFASINRGFRPYATATWALGMALMKLVSLQWLLLKPPSWFTLGWLMELEKGSFFVTDLRLSWMRHFHERDDEHRPFVVQFLGDIDGVVAREDVRDTEAFANSYTVTIEGADHSNLFDPAAPPGAAGFMRIMEVFRNPDPQLHEPEQAGELPATGPGRVVFVLHGIRDGNSGWVTDIAEAIEQQAKSDGQGKPLAAACSGHESPVLVDRSTYGWFSAIKFALPWVRRGNLAWFLDRYSYHVARNPDVQFHFVGHSNGTYILGTSLLEVSSLKFDRVYLAGSVLPREFPWQRMMLRRQVATVANQCSSEDWPVGGLCRGLHLIGFRDVGTGGVDGFDELRDLPTQPQTLWFKGDHGKPLQRPNQPNIVNYVLASHIATPLLSAPTGADLCERPSFWFRARMYGFALLTALGVGAAFYGAWWGFTHDHEGLVIAGILLLYFVLNTI”, the protein production entry is “failed”.

As for “MAKKDNFEEYAQLEEYASAEDISRVRAELLTCPELNTSLAGTIIEIDKNYAKSILITTSEMVADDQGLIFDAFIFAAANYVAQASINKEFSVIIGSKCFFYAPLKLGDVLELEAHALFDETSKKRDVKVVGHVKEVKMFEGTIQVVSTDEHIFKLKRPPLNTVKPTENQEQGAKINNPEAVAAALMASVGGK”, the protein production result is listed as “failed”.

In the case of “MAKKILILGAAGEIARMLTDRLLAESDAELVLYGRNVSQRLALEENSRIKLVDGTFGESEKLEAALAGVDVVYLNSMSSPADTASVVQALEKAGVKRLLGATIAGVEDEVPYELATWTKNSLPASYIKGEYDSAKIVRDSNLDYTLLRLTWLFNDESDREYELVPSGVEFADAEVSRQAITQAILDILNGEESEYVRKSFGLGKPNTHYGKPSFY”, the protein production entry is “failed”.

For the origin of these results see a protein production outcome set (Wang et al. 2014).
